The RNAGym collection of RNA variant scans (doi:10.1073/pnas.2313332121)

B1: TPR t1 (parent)
chain: GACCAAUCUGCCCUCAGAGCUCGAGAACAUCUUCGGAUGCAGAGGAGGCAGGCUUCGGUGGCGCGAUAGCGCCAACGUCCUCAACCUCCAAUGCAUCCCACCACAUGAUGAUGCCUGAAGAGCCUUGGUUUUUUG

Variants of: B1
Assay: polymerase ribozyme fitness, log enrichment relative to wild type (log ratio); higher = more active; in vitro selection for triplet polymerase activity
Outline: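 Each subunit of a heterodimeric triplet polymerase ribozyme was mutagenized into a library by PCR, transcribed, and subjected to one round of in vitro selection, run in triplicate. Libraries were annealed with a biotinylated primer, the partner subunit and triplets, incubated frozen at −7 °C, and extended constructs were gel-excised, captured on streptavidin beads and recovered by RT-PCR. Input and output libraries were sequenced on Illumina, keeping genotypes with ≥10 input reads and ≥1 read per output. Fitness is log base 2 of genotype enrichment divided by wild-type enrichment, from inverse-variance-weighted replicate averages.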

Point of comparison: C73U G93A, “polymerase ribozyme fitness (log ratio)” value -0.23. Against it:
- G45C C102A — lower, -3.26
- U55G C85A U92G U106A — lower, -5.73
- U14C G113A A118U — lower, -4.79
- A27U C72U A83U — lower, -3.67
- U9G U32C U59A U131A — higher, -0.0228
- C72A C86G G122A — lower, -2.26
- C72A G120C — higher, 1.31
- C3A C20U G65A C101A A105C C114U U131G — lower, -7.29
- C13G G36C C56A U78A A90G G135U — lower, -4.08
- C70U U125G G127A — lower, -1.83
- C20U C76G C89U C104A C115U — lower, -5.63
- C8G U14A G107U — lower, -4.05
- C22A C28U — lower, -4.42
- C72U U78A A90U C123U — lower, -1.05
- G39U G60U U129G — lower, -2.5
- C22U U38C U78C — lower, -4.58
- G39C C70U U112G — lower, -2.08
- G45C U96A — lower, -1.79
- A18C A24G — lower, -3.95
- C56A G69A U133C — lower, -2.92
- G77A G110U — lower, -1.1
- U9C A27G G45A G57U C115G — lower, -3.94
- A18C G19A G71U C104U C115A — lower, -0.527
- C70U A100C — lower, -1.61
- G52A G77U G93A G122U — lower, -2.45
- G36A A43U — lower, -2.94
- G42A G48U — lower, -2.42
- G51C G113C — lower, -5.71
- C11U G107A — lower, -6.13
- U14C G127A U129A — lower, -3.26
- A2U C101U — lower, -1.78
- A43C G69U C99U — lower, -3.77
- C3U G45A G61U A100U C124U — higher, 0.286
- U59C C86U G127C — lower, -2.09
- C64U G117C C123U — lower, -4.94
- A18U G42A U130A — lower, -3.41
- A43C C86U — lower, -2.14
- G61U C88G — lower, -1.3
- C34U C88G C123G — lower, -3.83
- G39U C115U — lower, -1.86
- G19A G60A A95U — lower, -3.51
- C8G G45A C56U C94A C101A — lower, -1.64
- C8G C12G C114G — lower, -2.57
- A27G C56G C89U G110U — lower, -3.06
- A6U C11U G47C C85U C114A — lower, -4.43
- U32C G60U U87C C101G — lower, -5.05
- C20U A24U U32C C85U C101G G110U — lower, -6.93
- C12U C22G C72G C104A G113C A118G U129A — lower, -6.33
- C85A C101G — lower, -3.91
- A29U G42C G113U U129A — lower, -4.15
- C79G U112A — lower, -1.41
- A26U G42U G57A U78G U106A — lower, -5.03
- C4G A29G U54C — lower, -2.97
- C56G G110U G117A — lower, -4.5
- C12U G17U A50G U112A — higher, 0.845
- C56A G69A A84G A121C — lower, -3.85
- C22G G52U A111C — lower, -3.81
- C34U C64U C94G G113A — lower, -7.42
- C11A G47A G69U G77U — lower, -1.86
- C13A G69A — lower, -3.52
- G48A C49U C53A A111U — lower, -3.28
- U78G C102U G110A — lower, -4.35
- G58C C70A G77C G117A — lower, -7.23
- C4G C73U C101A U129A — lower, -1.48
- G57U C73G — within 0.2 log units, -0.228
- C3U C79U C94U G110U — lower, -1.77
- A6U G51C C56U — lower, -2.91
- G51A G60A C80A A95G A111G — lower, -4.57
- C70A C102A U112C — lower, -2.45
- G36C C94U — lower, -1.47
- U38G C49U G61U — lower, -1.52
- U9A C73U C123G U134C — higher, 2.44
- A2C C73A — lower, -1.09
- A84G G113U G135A — lower, -4.51
- C11G G17A C72U C101U — lower, -2.99
- G52U U59C C85U C124U — lower, -1.1
- C56G A111U — lower, -2.49
- C72U C114A — lower, -1.67
- C70U U78C A105U G120C U130A — lower, -3.59
- C8G C70G A74U — lower, -4.41
- A26U G61C U96A C114U G117A — lower, -5.84
- C70U C72G A75U — lower, -1.29
- C8G G17C C40U G61U U106A U131A — lower, -4.28
